Measured values: patent US20230203107A1, “PEPTIDE FOR TREATING SEPSIS DERIVED FROM RV3364C PROTEIN OF MYCOBACTERIUM TUBERCULOSIS” (priority 2021, published 2023)

Target: T1, SNX9 BAR domain (Homo sapiens, UniProt Q9Y5X1)
T1 construct: different regions 1-595, 1-250, 250-361, and 392-595 of SNX9; expressed in transfected cells; host or cells: 293T (pEF-IRES-Puro expression vector)
Format: cell-based

T1 sequence (Q9Y5X1 392-595): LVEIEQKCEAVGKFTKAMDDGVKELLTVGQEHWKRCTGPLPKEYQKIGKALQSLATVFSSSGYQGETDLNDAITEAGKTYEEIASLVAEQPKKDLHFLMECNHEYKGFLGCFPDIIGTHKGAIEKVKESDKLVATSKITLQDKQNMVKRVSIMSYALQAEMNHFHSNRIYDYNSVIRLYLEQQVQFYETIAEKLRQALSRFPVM

Q: “Rv3364c: Rv3364c protein of Mycobacterium tuberculosis, expressed in 293T cells from a Flag-tagged plasmid” was tested. Which “domain of SNX9 interacting with Rv3364c” value did it give?
A: interacted with SNX9 through a Bin-Amphiphysin-Rvs (BAR) domain
